Results from US7927849B2, “Laccase enzyme and use thereof” (AB Enzymes OY, priority 2004, dated 2011).

Assay: Denim bleaching: laccase-mediator (100 nkat/g, 5 mg/g, 30 min, 60° C.) compared to sodium hypochlorite (15 min, 40° C.)
Method: Different types of demin were treated with a TaLcc1 laccase product from Trichoderma strain RF5597 and DeniLite II Base from Novozymes and the results obtained were compared to hypochlorite bleaching. All together 27 pieces of different kinds of denim (whole jeans), which had been previously washed with cellulase after desizing to different abrasion levels or had been only desized with ECOSTONE®A200 (60° C., 10 min), were collected for the test (Table 15). The jeans were made of Indigo dyed denim, except the English jeans contained Indigo dyed denim with sulphur bottom. Jeans were cut in such a way that pieces from the same pair of jeans could be used for all tests.
The jeans were made of Indigo dyed denim (right hand twill), except the English jeans contained Indigo dyed denim with sulphur bottom. The weights of the original (i.e. not desized) denim fabrics were typically higher than 475 g/m^2 (14 oz/yd^2). The weights of three 10 cm×10 cm pieces were measured after 24 hours incubation at room temperature (ca. 22° C. and at relative moisture ca. 64%).
The laccase treatments were performed with Electrolux's Wascator FOM 71 CLS washer extractor under optimal conditions for each enzyme, described in Table 16. Methyl syringate (Example 7) was used as a mediator. Laccase was inactivated after draining by raising the pH above 11 by NaOH (10 min, 60° C.) and rinsing for three times. The fabrics were dried in a tumbler.
The sodium hypochlorite bleaching was performed with Electrolux's Wascator FOM 71 CLS washer extractor using denim obtained from the same jeans as in laccase treatments under conditions described in Table 17. Sodium hydroxide was added before adding 25 ml/l of 10% sodium hypochlorite solution (Klorite Forte, Farmos Oy) to keep the pH above 10.5 during the treatment. After draining the bleach liquor, there was one 2 minutes rinsing step with the liquor ratio of 1:20 before dechlorinating with sodium thiosulphate. After dechlorinating the denim samples were rinsed 3 times for 2 minutes with the liquor ratio of 1:20. The fabrics were dried in a tumbler.
The bleaching effect was evaluated by measuring the colour as reflectance values as in Example 7. […] Different looks were obtained depending on the type of the denim and cellulase treatment used. “Sulphur-bottom type” denim was the most difficult to bleach.

[1] = all cellulase treated denim samples
[2] = sample B1: Basic Jeans, Ecostone P1250
[3] = sample E1: English jeans (sulphur bottom), desized only
[4] = sample E2: English jeans, Ecostone NP2000
[5] = sample E3: English jeans, Rocksoft NCE-EA
[6] = sample E4: English jeans, Rocksoft NCE-2X
[7] = sample E5: English jeans, Ecostone L900
[8] = sample E6: English jeans, Ecostone L900
[9] = sample E7: English jeans, Ecostone L900
[10] = sample L1: Lee Cooper jeans, desized only
[11] = sample L2: Lee Cooper jeans, Ecostone L
[12] = sample L3: Lee Cooper jeans, Biotouch C29
[13] = sample L4: Lee Cooper jeans, Ecostone L
[14] = sample L5: Lee Cooper jeans, Indiage Max L
[15] = sample L6: Lee Cooper jeans, Indiage Super L
[16] = sample L7: Lee Cooper jeans, Ecostone CXP500 Exper.
[17] = sample L8: Lee Cooper jeans, Ecostone CXP experimental
[18] = sample L9: Lee Cooper jeans, Ecostone N400
[19] = sample T1: Tincan jeans, desized only
[20] = sample T2: Tincan jeans, Ecostone N400
[21] = sample T3: Tincan jeans, Ecostone L300
[22] = sample T4: Tincan jeans, Denimax 991S
[23] = sample W1: Warric jeans, desized only
[24] = sample W2: Warric jeans, Ecostone P4500
[25] = sample W3: Warric jeans, Indiage Max G
[26] = sample W4: Warric jeans, Ecostone NP2000
[27] = sample W5: Warric jeans, Ecostone L900
[28] = sample W6: Warric jeans, Denabraide MBL 65 E

B1: TaLcc1: Recombinant Thielavia arenaria ALKO4197 laccase 1 (SEQ ID NO: 12) produced in Trichoderma reesei strains RF5597/RF5598 (protein)
chain: MKSWAAAVALMVGILSPHAAAAPPANPVQRDMLQVLEARQSGPTCNTPSNRACWTNGFDINTDYEVSTPNTGRTVAYQLTLTEKENWIGPDGVLKNVVMLVNDKIIGPTIRANWGDNIEVTVINNLKTNGTSMHWHGLRQLGNVFNDGANGVTECPIPPKGGRKTYKFRATQYGTSWYHSHFSAQYGNGVVGTIQIDGPASLPYDIDLGVFPLMDYYYRSADELVHFTQSNGAPPSDNVLFNGTARHPETGAGQWYNVTLTPGKRHRLRIINTSTDNHFQVSLVGHNMTVIATDMVPVNAFTVSSLFLAVGQRYDVTIDANSPVGNYWFNVTFGDGLCGSSNNKFPAAIFRYQGAPATLPTDQGLPVPNHMCLDNLNLTPVVTRSAPVNNFVKRPSNTLGVTLDIGGTPLFVWKVNGSAINVDWGKPILDYVMSGNTSYPVSDNIVQVDAVDQWTYWLIENDPTNPIVSLPHPMHLHGHDFLVLGRSPDELPSAGVRHIFDPAKDLPRLKGNNPVRRDVTMLPAGGWLLLAFKTDNPGAWLFHCHIAWHVSGGLSVDFLERPNDLRTQLNSNAKRADRDDFNRVCREWNAYWPTNPFPKIDSGLRHRFVEESEWMVR
modifications: Thielavia arenaria ALKO4197; (1)..(617) Deduced amino acid sequence of Thielavia arenaria ALKO4197 laccase 1 (Ta Lcc1)
bleaching better than DeniLite II Base [1]: 55-200%
bleaching better than sodium hypochlorite [1]: 60-115%
increase of L* better than DeniLite II Base (fabrics only desized): over 100%
increase of L* compared with sodium hypochlorite (fabrics only desized): equal or better
Increase of L* [2]: 17.71
L* after treatment [2]: 47.19
b* after treatment [2]: −12.75
Increase of L* [3]: 5.24
L* after treatment [3]: 22.71
b* after treatment [3]: −13.97
Increase of L* [4]: 10.51
L* after treatment [4]: 35.99
b* after treatment [4]: −14.08
Increase of L* [5]: 11.26
L* after treatment [5]: 36.52
b* after treatment [5]: −14.46
Increase of L* [6]: 11.75
L* after treatment [6]: 38.79
b* after treatment [6]: −13.94
Increase of L* [7]: 12.34
L* after treatment [7]: 37.53
b* after treatment [7]: −14.03
Increase of L* [8]: 11.63
L* after treatment [8]: 34.17
b* after treatment [8]: −14.79
Increase of L* [9]: 13.16
L* after treatment [9]: 36.00
b* after treatment [9]: −14.95
Increase of L* [10]: 12.92
L* after treatment [10]: 33.13
b* after treatment [10]: −19.41
Increase of L* [11]: 19.08
L* after treatment [11]: 50.89
b* after treatment [11]: −13.17
Increase of L* [12]: 19.21
L* after treatment [12]: 47.66
b* after treatment [12]: −14.82
Increase of L* [13]: 18.97
L* after treatment [13]: 48.39
b* after treatment [13]: −13.83
Increase of L* [14]: 19.24
L* after treatment [14]: 47.73
b* after treatment [14]: −14.28
Increase of L* [15]: 17.17
L* after treatment [15]: 46.71
b* after treatment [15]: −14.68
Increase of L* [16]: 15.75
L* after treatment [16]: 42.95
b* after treatment [16]: −16.23
Increase of L* [17]: 17.27
L* after treatment [17]: 46.73
b* after treatment [17]: −14.86
Increase of L* [18]: 16.22
L* after treatment [18]: 45.02
b* after treatment [18]: −14.91
Increase of L* [19]: 9.80
L* after treatment [19]: 34.82
b* after treatment [19]: −16.36
Increase of L* [20]: 14.50
L* after treatment [20]: 42.70
b* after treatment [20]: −14.60
Increase of L* [21]: 18.01
L* after treatment [21]: 47.09
b* after treatment [21]: −14.04
Increase of L* [22]: 16.37
L* after treatment [22]: 43.53
b* after treatment [22]: −15.18
Increase of L* [23]: 10.51
L* after treatment [23]: 28.54
b* after treatment [23]: −17.55
Increase of L* [24]: 16.04
L* after treatment [24]: 42.16
b* after treatment [24]: −14.48
Increase of L* [25]: 15.53
L* after treatment [25]: 44.08
b* after treatment [25]: −13.66
Increase of L* [26]: 13.32
L* after treatment [26]: 39.54
b* after treatment [26]: −14.72
Increase of L* [27]: 16.52
L* after treatment [27]: 40.49
b* after treatment [27]: −15.38
Increase of L* [28]: 15.57
L* after treatment [28]: 39.58
b* after treatment [28]: −15.62
